# In the supplement of paper PMC9112550, “Optimization of the antimicrobial peptide Bac7 by deep mutational scanning” (BMC Biology, 2022):
# Test system: Escherichia coli TOP10
# Test: shrunken log2 fold change of peptide-encoding DNA abundance (4.5 h post-induction vs induction); higher = less antimicrobial activity (less host growth inhibition)
# Conditions: time post-induction: 4.5 h; library: site-saturation at positions 5, 18, 19, 20
# 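Note: peptides expressed intracellularly from a pBAD plasmid library in pooled LB shake-flask culture, induced with 0.3% L-arabinose, DNA abundance read by NGS, three biological replicates, DESeq2 with apeglm shrinkage.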
row,Sequence,shrunken log2 fold change
1,RRIRFRPPRLPRPRPRPHHIPRP,-0.822
2,RRIRFRPPRLPRPRPRPHHVPRP,-0.323
3,RRIRFRPPRLPRPRPRPHIHPRP,-1.17
4,RRIRFRPPRLPRPRPRPHKCPRP,-0.106
5,RRIRFRPPRLPRPRPRPHLQPRP,-0.144
6,RRIRFRPPRLPRPRPRPHQCPRP,-0.315
7,RRIRFRPPRLPRPRPRPHQIPRP,-0.387
8,RRIRFRPPRLPRPRPRPHQMPRP,-0.037
9,RRIRFRPPRLPRPRPRPHRMPRP,-0.15
10,RRIRFRPPRLPRPRPRPHRRPRP,0.189
11,RRIRFRPPRLPRPRPRPHTRPRP,-0.223
12,RRIRFRPPRLPRPRPRPHVIPRP,-0.196
13,RRIRFRPPRLPRPRPRPHVSPRP,-0.135
14,RRIRFRPPRLPRPRPRPHWSPRP,-0.54
15,RRIRFRPPRLPRPRPRPHYGPRP,0.0398
16,RRIRFRPPRLPRPRPRPHYRPRP,-0.206
17,RRIRFRPPRLPRPRPRPHYTPRP,-0.385
18,RRIRFRPPRLPRPRPRPIAYPRP,-0.156
19,RRIRFRPPRLPRPRPRPIDTPRP,-0.127
20,RRIRFRPPRLPRPRPRPIDWPRP,-0.0094
21,RRIRFRPPRLPRPRPRPIFFPRP,-0.137
22,RRIRFRPPRLPRPRPRPIFIPRP,-0.777
23,RRIRFRPPRLPRPRPRPIFLPRP,-0.196
24,RRIRFRPPRLPRPRPRPIGFPRP,-0.27
25,RRIRFRPPRLPRPRPRPIGMPRP,-0.0266

row,Sequence,shrunken log2 fold change
1,RRIRFRPPRLPRPRPRPIIAPRP,-0.413
2,RRIRFRPPRLPRPRPRPIIYPRP,-0.671
3,RRIRFRPPRLPRPRPRPILAPRP,0.0156
4,RRIRFRPPRLPRPRPRPIMEPRP,-0.319
5,RRIRFRPPRLPRPRPRPIMTPRP,-0.368
6,RRIRFRPPRLPRPRPRPIPNPRP,-0.361
7,RRIRFRPPRLPRPRPRPIPTPRP,0.0793
8,RRIRFRPPRLPRPRPRPIPWPRP,-0.14
9,RRIRFRPPRLPRPRPRPIQVPRP,-0.228
10,RRIRFRPPRLPRPRPRPIVCPRP,-0.406
11,RRIRFRPPRLPRPRPRPIVSPRP,0.303
12,RRIRFRPPRLPRPRPRPIWGPRP,0.0125
13,RRIRFRPPRLPRPRPRPIYAPRP,-0.143
14,RRIRFRPPRLPRPRPRPIYEPRP,-0.632
15,RRIRFRPPRLPRPRPRPKCIPRP,-0.338
16,RRIRFRPPRLPRPRPRPKCYPRP,-0.233
17,RRIRFRPPRLPRPRPRPKDPPRP,0.216
18,RRIRFRPPRLPRPRPRPKFIPRP,-1.02
19,RRIRFRPPRLPRPRPRPKGAPRP,-0.0295
20,RRIRFRPPRLPRPRPRPKGYPRP,0.00663
21,RRIRFRPPRLPRPRPRPKHKPRP,-0.265
22,RRIRFRPPRLPRPRPRPKIRPRP,-0.226
23,RRIRFRPPRLPRPRPRPKKGPRP,0.106
24,RRIRFRPPRLPRPRPRPKKMPRP,0.153
25,RRIRFRPPRLPRPRPRPKKNPRP,0.0769

row,Sequence,shrunken log2 fold change
1,RRIRFRPPRLPRPRPRPKLQPRP,-0.0358
2,RRIRFRPPRLPRPRPRPKLRPRP,0.147
3,RRIRFRPPRLPRPRPRPKNIPRP,-0.485
4,RRIRFRPPRLPRPRPRPKNVPRP,0.04
5,RRIRFRPPRLPRPRPRPKPDPRP,0.463
6,RRIRFRPPRLPRPRPRPKQCPRP,-0.0712
7,RRIRFRPPRLPRPRPRPKQFPRP,0.058
8,RRIRFRPPRLPRPRPRPKRPPRP,0.755
9,RRIRFRPPRLPRPRPRPKRYPRP,0.0178
10,RRIRFRPPRLPRPRPRPKTIPRP,-0.223
11,RRIRFRPPRLPRPRPRPKTKPRP,0.0287
12,RRIRFRPPRLPRPRPRPKVYPRP,-0.382
13,RRIRFRPPRLPRPRPRPKWDPRP,0.117
14,RRIRFRPPRLPRPRPRPKWEPRP,0.223
15,RRIRFRPPRLPRPRPRPKWPPRP,0.27
16,RRIRFRPPRLPRPRPRPLAFPRP,-0.134
17,RRIRFRPPRLPRPRPRPLCQPRP,-0.12
18,RRIRFRPPRLPRPRPRPLDFPRP,-0.325
19,RRIRFRPPRLPRPRPRPLDHPRP,-0.359
20,RRIRFRPPRLPRPRPRPLDRPRP,0.163
21,RRIRFRPPRLPRPRPRPLFSPRP,-0.376
22,RRIRFRPPRLPRPRPRPLFWPRP,0.201
23,RRIRFRPPRLPRPRPRPLHNPRP,-0.398
24,RRIRFRPPRLPRPRPRPLHPPRP,-0.0197
25,RRIRFRPPRLPRPRPRPLLNPRP,-0.549
